Measurements reported in the supplement of paper PMC9170038.

System: MS2 coat protein
Test: apparent KD of MS2 coat protein; higher = weaker reporter binding
Conditions: Eterna round: R107
Outline: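 Binding of SNAP-549-labelled MS2 coat protein was measured on designed RNA switches transcribed on-chip from Illumina sequencing clusters. The protein rose in twofold steps from 0.7 or 1.5 nM to 3 µM, with 0.8–1.5 h per step early on and 10–20 min per step later, in 100 mM Tris-HCl pH 7.5, 80 mM KCl, 4 mM MgCl2, without or with constant ligand. Each design's apparent KD is the median of fits to its normalised cluster binding curves.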

[1] = input ligand: theophylline 20 uM
[2] = input ligand: theophylline 2 mM
[3] = input ligand: tryptophan 2.4 mM

| Sequence | apparent KD of MS2 coat protein (input ligand: arginine 13.2 mM) | apparent KD of MS2 coat protein (input ligand: none) | apparent KD of MS2 coat protein [1] | apparent KD of MS2 coat protein [2] | apparent KD of MS2 coat protein [3] |
| --- | --- | --- | --- | --- | --- |
| UGUAUGUGAUCUGAUACCAGCUAGCGGAAACGCAAAAGCUUGAGGAUCACCCAAGUGGAAAGCCCUUGGCAGCAGAUCGCAUACU [Denovo 1 #StaticStem #AlternativeMS2] | 17.5 nM | 15.1 nM | 14.7 nM | 9.89 nM | 17.4 nM |
| AUGUAAGUGGUGUCACUGUGGUCUAGUGAUACCAGUAUCGAAAGAUACCCUUGGCAGCGCUAGAACAUGAGGAUCACCCAUGUUU [#24 Exclusion-TheophyllineA] | 34.8 nM | – | 74.8 nM | – | 58.3 nM |
| GUCUUGGAAUCGGCCGCCACUACAUGAGGAUCACCCAUGUGGACAAAUAGGGUUUUUAAGCUCGGUAGGACCGGGAUUCGGACAU [Mamaon] | 12.3 nM | 14.3 nM | 15.9 nM | 18 nM | 66 nM |
| AUUAAGGAUAUGUAGACGGCGGAGAAGAGACGAGGACCGGUACGGCCGCCACUCGUGUUAGUUAACAUGAGGAUCACCCAUGUAA [#07 Tryptophan A Same State] | 51.3 nM | – | 56.1 nM | 69.6 nM | – |
| UGUACUAUGUGAAGGAGCGAGAAUCCUACAUGAGGAUCACCCAUGUAACAGCGAAAGCUGACUCAGGUAGGUCGCACAUAGUACU [ArgBS - First try] | 111 nM | 130 nM | 115 nM | 144 nM | 128 nM |
| GGGAGGGAGGCGGCCGCCACUGAUUUUCAUAUAUAUAUAACAUGAGGAUCACCCAUGUAGAUAUACAGGACCGGGCCUUUUUUUU [aaaG] | 14.6 nM | – | 33.8 nM | 22.8 nM | – |
| UUGUGGUAGGCGCAUACUCAUUUAUACAAGCGAGGACCGGUACGGCCGCCACUCGGAAUAAAACAUGAGGAUCACCCAUGUACCG [theeternabot_exclusion_MS2_Trp_A_50] | 12.9 nM | – | 17.1 nM | 14.6 nM | – |
| AUAACAUGAGGAUCACCCAUGUAGAGUGAUACCAGACUACGUAAUGUCCCUUGGCAGCACAAGUAAAGUUACGAAUAAUGAUAGA [JR_SSTheophyA_Sub002] | 113 nM | – | 146 nM | – | 137 nM |
| ACAAGUCCUCAUGAUACCAGCGAUGAGACAUAGUCUCAACAUGAGGAUCACCCAUGUAUUCGCCCUUGGCAGCAUACGGUUUUUG [Arleer] | 85.1 nM | – | 373 nM | – | 517 nM |
| GCACCAGGUACGGAUACCAGACAUUGCCGUUAGGGUGAACAUGAGGAUCACCCAUGUUUUGUCCCUUGGCAGCCGUACCUGGUGC [ETB NP+V+V2 #7 Same Structure] | 9.58 nM | 9.57 nM | 14.7 nM | 86.5 nM | 9.85 nM |
| AACAUGAGGAUCACCCAUGUUUUAUGGGAUACCAGAGACGAAAGUCUCCCUUGGCAGCCCAAGCUGCUCCAUACGAAAGUAUGGU [Theophylline A 17] | 16 nM | – | 18.2 nM | – | 16.6 nM |
| GACGCAUGAGUUGUAAAAGCUCAUGGGUCGCGAGGACCGGUACGGCCGCCACUCGGCUGUACAUGAGGAUCACCCAUGUCAGGGU [#1 Same State - Tryptophan A Attempt #28 (HarryS)] | 154 nM | – | 434 nM | 886 nM | – |
| UCGUGUGUUUCGGAUACCAGUGAAAUCGAUACAUGAGGAUCACCCAUGUGAGAGGAUGUACACCCUUGGCAGCUGUCUGUAUCGG [asczmullin] | 40.6 nM | 54.2 nM | 58.6 nM | 43.8 nM | 43 nM |
| UGACAUUGCUCAGAUACCAGACAGGAGGAUCACUCCUGUGCCAACAAGUACAAAAUAAAUGUCCCUUGGCAGCUGAGCAAUGUCU [TheoBX 25 #MS2Left #AlternativeMS2 #Theo22] | 32 nM | 71.1 nM | 223 nM | 459 nM | 49 nM |
| AAGGCACGAGACAUGAGGAUCACCCAUGUUCGAGGACCGGUACGGCCGCCACUCGGUGGACUCAUGGUAAAGCCGGUGAGCCAAA [AK 1.1 SS Trypt (A)] | 18 nM | – | 25.2 nM | 22.5 nM | – |
| UUAGAUUGCCGAAGGAGCGAGAUAGCCUACAUGAGGAUCACCCAUGUAGAAACGGGCUGAUCUCAGGUAGGUCGCGGCAGGUAGC [Soaquatan] | 84.6 nM | 26.2 nM | 27.4 nM | 25.8 nM | 24.9 nM |
| GCACGACAUGAGGAUCACCCAUGUGCAGAUACCAGUAGGAUAUCCUACCCUUGGCAGCUGAGUGGAUCCGGAGGACCAUGGGUAA [Same State Theophylline A GF8] | 32.8 nM | – | 61.7 nM | – | 34.7 nM |
| UCACUCCUGAUGGAUACCAGUUACUAACGCAACAUGAGGAUCACCCAUGUGAACACUCAGAACCCUUGGCAGCCAGGAGAACGAA [theeternabot_sameState_MS2_Theo_B_30] | 42.8 nM | – | 60.2 nM | – | 53.8 nM |
| GCUAGGUCUACGGCCGCCACUAGACGUGGGUAAGACAUGAGGAUCACCCAUGUACUACAGGCGAAUAGGACCGGGUAGACCUAGC [SSTB NP+V+V2 #12 Same Structure] | 58.2 nM | 36.4 nM | 55 nM | 46.1 nM | 15.1 nM |

| Sequence | apparent KD of MS2 coat protein (input ligand: arginine 13.2 mM) | apparent KD of MS2 coat protein (input ligand: none) | apparent KD of MS2 coat protein [1] | apparent KD of MS2 coat protein [2] | apparent KD of MS2 coat protein [3] |
| --- | --- | --- | --- | --- | --- |
| CUACAUUUGUAGAAACCGGUCAACAUUAUUCGAGGACCGGUACGGCCGCCACUCGUAUAUUUUAAUACAUGAGGAUCACCCAUGU [Tryptophan A 6] | 12.3 nM | – | 14.2 nM | 13.6 nM | – |
| GGGUAUGAUCCGGAUACCAGCGAACAUGAGGAUCACCCAUGUGACCUAAGAUAGGCUCUACGCCCUUGGCAGCCGCGAUCGCAGA [Same State Theophylline B GF9] | 20.4 nM | 22.3 nM | 23.2 nM | 13.3 nM | 24.7 nM |
| AGUCUUGAACGAAGGAGCGACGUACAUGAGGAUCACCCAUGUGGGAGCGAAAGCUCCUAACGUCAGGUAGGUCGCGUUCGAGACA [Omei Arginine B SS A v1] | 17.7 nM | 16.7 nM | 21.9 nM | 16.2 nM | 18.6 nM |
| AAUCUGAUUGCGGCCGCCACUAAUUUUCCAUGAGUAUUGCAAUUACAUGAGGAUCACCCAUGUCAUAGGACCGGGCAUGACAUCU [theeternabot_sameState_MS2_Trp_B_45] | 104 nM | – | 202 nM | 309 nM | – |
| CACAUGAGGAUCACCCAUGUCUGAACUGAAGGAGCGCUAAAUAAGGCAGGUAGGUCGCGGAAUCCCGGGUGCAUAUGCACCCGGG [9.aB] | 14.6 nM | 32 nM | 30.8 nM | 26.3 nM | 20.9 nM |
| AGCAACAAGUCGGCCGCCACUCAUUUAACAUGAGGAUCACCCAUGUGAAUAACAUGAUUGUAAUAGAGGACCGGGACAGUUGCAU [JR_SSTryptoB_Sub014] | 62.1 nM | – | 85.5 nM | 103 nM | – |
| ACCUGUACGAAAAGUGCAGGACAUGAAUAACGAGGACCGGUACGGCCGCCACUCGGGUAAUAACCUGAGGAUCACCCGGGUCAUG [TrypAS 6 #AlternativeMS2 #Zipper #StaticStem] | 111 nM | 218 nM | 211 nM | 249 nM | 27.5 nM |
| GUCCACAGCCGAAGGAGCGCUAGAAGAUGACAUGAGGAUCACCCAUGUGUGUGGUGUGGCUAGCAGGUAGGUCGCGGAGUGGAUU [Exclusion - Arginine B (Freestyle 15)] | 39.7 nM | 30.5 nM | 59.3 nM | 39 nM | 26.1 nM |
| AAUUCCUCACAUGAGGAUCACCCAUGUGAAGGAGCGCCGAAUAAGGCAGGUAGGUCGCACAUGGAAACCGCUACGAAAGUAGCAA | 13.1 nM | 20.5 nM | 64.8 nM | 20.5 nM | 21.3 nM |
| GCUGCACAUUCGGCCGCCACUGCUGUUACAGGAAGCUAUAGCUCACAUGAGGAUCACCCAUGUCCCAGGACCGGGAAAGUAUGGA [theeternabot_sameState_MS2_Trp_B_39] | 41.2 nM | – | 79.2 nM | 74.2 nM | – |
| CAUAUAUAUUGAAGGAGCGUCGAAAAUGGGUAAACAUGAGGAUCACCCAUGUAAAGGGAACGACAGGUAGGUCGCAAUAUAUAUG [AstromonsSSArgB#4] | 115 nM | 181 nM | 199 nM | 177 nM | 146 nM |
| AUGGUAAGAACAUGAGGAUCACCCAUGUGACGAGGACCGGUACGGCCGCCACUCGUACCUUAGUCGUCGAACAGAGGAUUCAUGU [Trypt A-MS2@10] | 37.1 nM | – | 138 nM | 125 nM | – |
| CCGUUUUAUGGCGACAUAGGGCGGACUGAAGGAGCGGUAUAAUAGCCAGGUAGGUCGCAGAGAUCCACAUGAGGAUCACCCAUGU [!0.aB] | 73.9 nM | 34.3 nM | 51.5 nM | 42.9 nM | 34.3 nM |
| UGUAUGGACUGAAGGAGCGGUUGAUAACAUGAGCAUCAGCCAUGUAAUAAGGCGAAAGCCAACCAGGUAGGUCGCAGUCCAUACU | 8.26 nM | 9.68 nM | 12.5 nM | 9.11 nM | 14.8 nM |
| AACCGAGGCUAUCCUCUAAGAAAAUGUGAUACCAGAAUAAUUUUAUUCCCUUGGCAGCAUGACAUGAGGAUCACCCAUGUGUCUU [SSTheo A #6] | 73.6 nM | – | 131 nM | – | 138 nM |
| AGUGUUAUAACUGAUACCAGACUCUCAUGUUUACAUGAGGAUCACCCAUGUUAUUUCUUUGUCCCUUGGCAGCAGAAUUUACACA [JR_SSTheophyB_Sub009] | 142 nM | – | 298 nM | – | 343 nM |
| UAUCCACAUGAGGAUCACCCAUGUUAGGAAGGAGCGGUGAAUGCACCAGGUAGGUCGCCUAGCUGAGGACUGUCGAUGGAUUCGU [Exclusion - Arginine A (Freestyle 18)] | 23.3 nM | 23.9 nM | 30.8 nM | 39.6 nM | 26 nM |
| UUUUAACAUGAGGAUCACCCAUGUAAUGAUACCAGAGACGAAAGUCUCCCUUGGCAGCAUAAUCAUUACAUGAGAUGGAAACAUC [Theophylline A 7] | 29.2 nM | – | 48.5 nM | – | 17.5 nM |
